Tests used:
[1] = target: T1, PHO36MH (PHO36 with c-myc epitope and hexa-His tag fused in-frame at the C-terminus) (Saccharomyces cerevisiae, UniProt Q12442 1-317); assay: 35S-osmotin binding to yeast spheroplasts, scintillation counting, non-specific binding subtracted
T1 construct: whole, on cells; Overexpressed in BWG7a from the multicopy plasmid pPHO36MH; It was used as a detergent-solubilised total membrane fraction in the pull-down and on spheroplasts in the 35S-osmotin assay; Bands of about 36 and 72 kDa were read as monomers and dimers; also called c-myc tagged PHO36; recombinant PHO36MH; not shown: c-myc tag; hexa-His tag
T1 sequence (looked up): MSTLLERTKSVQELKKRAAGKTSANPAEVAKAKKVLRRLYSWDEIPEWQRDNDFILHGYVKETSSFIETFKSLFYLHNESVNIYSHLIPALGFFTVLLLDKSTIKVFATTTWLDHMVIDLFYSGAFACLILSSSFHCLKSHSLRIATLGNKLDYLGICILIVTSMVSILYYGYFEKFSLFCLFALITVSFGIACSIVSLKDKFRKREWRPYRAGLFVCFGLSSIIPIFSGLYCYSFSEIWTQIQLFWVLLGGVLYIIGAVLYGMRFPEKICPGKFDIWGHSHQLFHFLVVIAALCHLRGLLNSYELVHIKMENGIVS
Experimental: After extensive washing, bound proteins were dissociated, separated by SDS-PAGE and the c-Myc tag was immunodetected with mycl-9E10 antibodies. B. Spheroplasts (10⁹ml⁻¹) derived from the Δpho36 mutant (Δpho36), and the wild-type strain BWG7a carrying the plasmid pPHO36MH (pPHO36) were incubated with ³⁵S-osmotin (0.4 μM, 0.16 μCi) for 1 hr, without (none) or with a 10-fold molar excess of A9, BSA, or osmotin as competitors. After extensive washing, ³⁵S-osmotin retained on spheroplasts was counted.
³⁵S-Osmotin Binding Assay. Osmotin was radiolabeled to a specific-activity of 12 Ci mmol⁻¹ using the ³⁵SLR reagent (Amersham), according to manufacturer's instructions. Yeast cells were grown YPD medium until A₆₀₀ₙₘ 0.6 and then harvested by centrifugation. The pellet was resuspended in 1M sorbitol (A₆₀₀ₙₘ 6) and treated with lyticase (100 U ml⁻¹). After digestion of the cell wall was completed, spheroplasts were collected by centrifugation, washed twice with 1M sorbitol and resuspended in 1M sorbitol (10⁹ml⁻¹). The binding reaction was initiated by the addition of 2 μl of 35S-osmotin (1 μCi, 3 μg) to 300 μl of spheroplasts (0.3×10⁹). […] Spheroplasts were collected by centrifugation, washed twice, resuspended 1M sorbitol (50 μl) and counted in a liquid scintillation counter in 5 ml of EcoLume™ (ICN Biomedicals). […]

[2] = target: T2, PHO36 (endogenous, wild-type strain BWG7a) (Saccharomyces cerevisiae, UniProt Q12442 1-317); assay: cell-based or functional assay
T2 sequence (looked up): T1 sequence (looked up)

[3] = target: T3, PHO36t (product of the truncated PHO36 cDNA isolated in the screen) (Saccharomyces cerevisiae, UniProt Q12442 116-317, limits assumed); assay: cell-based or functional assay
T3 sequence (looked up): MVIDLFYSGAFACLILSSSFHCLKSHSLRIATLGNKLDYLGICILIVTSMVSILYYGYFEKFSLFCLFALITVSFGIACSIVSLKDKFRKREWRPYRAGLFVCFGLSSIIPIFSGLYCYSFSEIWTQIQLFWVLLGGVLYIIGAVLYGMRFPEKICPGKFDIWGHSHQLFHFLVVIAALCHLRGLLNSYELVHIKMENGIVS

[4] = target: T4, STE7-Myc fusion protein (Saccharomyces cerevisiae, UniProt P06784 1-515, limits assumed); assay: pull-down with osmotin-Sepharose 4B, anti-myc (myc1-9E10) immunoblot
T4 construct: Used as a cell extract of BWG7a expressing the fusion, as a control for the c-myc tag; also called c-myc tagged STE7; pNC267 product; not shown: Myc tag
T4 sequence (looked up): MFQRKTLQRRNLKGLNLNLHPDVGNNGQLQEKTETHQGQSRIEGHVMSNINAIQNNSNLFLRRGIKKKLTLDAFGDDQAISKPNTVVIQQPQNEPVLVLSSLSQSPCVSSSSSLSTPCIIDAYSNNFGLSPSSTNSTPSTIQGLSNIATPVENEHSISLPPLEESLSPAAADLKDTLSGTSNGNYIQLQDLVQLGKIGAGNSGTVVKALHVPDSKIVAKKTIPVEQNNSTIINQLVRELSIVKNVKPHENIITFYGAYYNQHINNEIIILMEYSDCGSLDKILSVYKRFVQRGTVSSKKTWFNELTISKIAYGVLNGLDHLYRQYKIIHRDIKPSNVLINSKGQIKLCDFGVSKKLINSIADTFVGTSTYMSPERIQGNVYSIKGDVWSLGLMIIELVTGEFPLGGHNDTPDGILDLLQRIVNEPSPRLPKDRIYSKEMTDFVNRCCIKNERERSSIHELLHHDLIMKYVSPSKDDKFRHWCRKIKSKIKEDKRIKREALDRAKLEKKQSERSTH
Experimental: FIG. 4: PHO36 Interacts Specifically with Osmotin In Vitro and In Vivo. A. Osmotin-Sepharose 4B was incubated with cell extract of the strain BWG7a expressing the fusion protein STE7-Myc (lane 1), total membrane fraction purified from the strain ΔPHO36 (lane 2) or total membrane fraction purified from the strain BWG7a expressing c-myc tagged PHO36 from the plasmid pPHO36MH (lanes 3-8) in the absence (lanes 1, 2, and 5) or presence of the competitor proteins A9 (100 μg, lane 3; or 10 μg, lane 7), osmotin (Osm; 100 μg, lane 4; or 10 μg, lane 6), or BSA (100 μg, lane 8). After extensive washing, bound proteins were dissociated, separated by SDS-PAGE and the c-Myc tag was immunodetected with mycl-9E10 antibodies. B. Spheroplasts (10⁹ml⁻¹) derived from the Δpho36 mutant (Δpho36), and the wild-type strain BWG7a carrying the plasmid pPHO36MH (pPHO36) were incubated with ³⁵S-osmotin (0.4 μM, 0.16 μCi) for 1 hr, without (none) or with a 10-fold molar excess of A9, BSA, or osmotin as competitors. After extensive washing, ³⁵S-osmotin retained on spheroplasts was counted.
Protein interaction assays in solution. Osmotin was coupled to CNBr-activated Sepharose 4B (Pharmacia Biotech) according to the manufacturer's instructions. […]

B1: osmotin (ligand)
chain: ATIEVRNNCPYTVWAASTPIGGGRRLDRGQTWVINAPRGTKMARVWGRTNCNFNAAGRGTCQTGDCGGVLQCTGWGKPPNTLAEYALDQFSGLDFWDISLVDGFNIPMTFAPTNPSGGKCHAIHCTANINGECPRELRVPGGCNNPCTTFGGQQYCCTQGPCGPTFFSKFFKQRCPDAYSYPQDDPTSTFTCPGGSTNYRVIFCPNGQAHPNFPLEMPGSDEVAK
notes: Purified osmotin (26 kDa globular protein, mostly a monomer in solution); also called tobacco PR-5 protein; 35S-osmotin
- fold 35S-osmotin bound, spheroplasts of the PHO36MH-overexpressing strain against the wild-type strain with empty vector [1]: ~3 times
- IC50 for osmotin of control cells transformed with the empty vector (viable counts after one hour of osmotin treatment, galactose medium) [2]: 600 nM
- IC50 for osmotin of the wild type strain (compared with the PHO36 disruptant) [2]: 600 nM
- IC50 for osmotin of cells overexpressing PHO36t (viable counts after one hour of osmotin treatment, galactose medium) [3]: 200 nM
- fold change of IC50 for osmotin, cells overexpressing PHO36t against control cells with the empty vector [3]: 3 fold
- binding result [4]: no binding
